T1: EsCas13d, nuclease-dead (Eubacterium siraeum, UniProt B0MS50, R295A;H300A;R849A;H854A)
T1 sequence: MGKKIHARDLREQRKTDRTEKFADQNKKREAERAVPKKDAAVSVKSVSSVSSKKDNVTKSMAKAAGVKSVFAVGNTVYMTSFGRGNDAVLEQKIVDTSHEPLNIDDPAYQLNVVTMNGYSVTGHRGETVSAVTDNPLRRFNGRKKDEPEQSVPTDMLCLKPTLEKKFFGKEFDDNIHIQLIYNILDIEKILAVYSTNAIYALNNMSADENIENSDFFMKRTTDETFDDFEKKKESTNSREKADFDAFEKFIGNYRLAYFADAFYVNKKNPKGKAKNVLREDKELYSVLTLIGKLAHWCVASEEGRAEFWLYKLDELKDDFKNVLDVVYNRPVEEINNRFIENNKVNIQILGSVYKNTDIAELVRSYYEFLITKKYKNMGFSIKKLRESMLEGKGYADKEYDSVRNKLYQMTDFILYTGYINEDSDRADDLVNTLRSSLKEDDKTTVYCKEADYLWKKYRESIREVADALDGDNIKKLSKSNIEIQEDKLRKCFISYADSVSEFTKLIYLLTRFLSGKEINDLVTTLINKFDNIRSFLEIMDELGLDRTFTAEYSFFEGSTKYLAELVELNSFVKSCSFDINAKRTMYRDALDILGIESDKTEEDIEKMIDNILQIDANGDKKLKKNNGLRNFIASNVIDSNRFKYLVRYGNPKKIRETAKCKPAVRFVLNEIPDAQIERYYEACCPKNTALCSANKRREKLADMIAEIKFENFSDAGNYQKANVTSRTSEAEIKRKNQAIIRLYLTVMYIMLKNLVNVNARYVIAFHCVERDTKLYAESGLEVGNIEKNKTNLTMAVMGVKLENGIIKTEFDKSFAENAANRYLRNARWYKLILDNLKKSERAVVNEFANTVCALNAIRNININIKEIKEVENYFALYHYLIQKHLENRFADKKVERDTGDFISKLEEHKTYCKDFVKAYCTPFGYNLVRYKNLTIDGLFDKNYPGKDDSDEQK

B1: target 1 insG 3' of 22,insU 3' of 7 (mixed)
RNA 1: CACCCGUGCAAAAAUGCAGGGGUCUAAAACUGAGCGGAUAACCUCUCUAUGG
RNA 2: GGGAAUGGAUCCACAUCUACGAAUUCGUACGCAUAGAGAGGUUAUCUCGCUCACCGAGAUCGGAAGAGCACACGU
B2: target 1 insC 3' of 13,insU 3' of 5 (mixed)
RNA 1: CACCCGUGCAAAAAUGCAGGGGUCUAAAACUGAGCGGAUAACCUCUCUAUGG
RNA 2: GGGAAUGGAUCCACAUCUACGAAUUCGUACCAUAGAGAGCGUUAUCCGUCUCACCGAGAUCGGAAGAGCACACGU
B3: target 1 C2G,A18U (mixed)
RNA 1: CACCCGUGCAAAAAUGCAGGGGUCUAAAACUGAGCGGAUAACCUCUCUAUGG
RNA 2: GGGAAUGGAUCCACAUCUACGAAUUCGUACCAUUGAGAGGUUAUCCGCUGACCGAGAUCGGAAGAGCACACGU
B4: target 3 insA 3' of 4,insU 3' of 1 (mixed)
RNA 1: CACCCGUGCAAAAUUGCAGGGGUCUAAAACGACCUGAAUAUUUCAGAUCAAA
RNA 2: GGGAAUGGAUCCACAUCUACGAAUUCGUUUUUGAUCUGAAAUAUUCAGAGUCUUGCAGAUCGGAAGAGCACACGU
B5: target 3 insA 3' of 22,insA 3' of 14 (mixed)
RNA 1: CACCCGUGCAAAAUUGCAGGGGUCUAAAACGACCUGAAUAUUUCAGAUCAAA
RNA 2: GGGAAUGGAUCCACAUCUACGAAUUCGUUUAUUGAUCUGAAAAUAUUCAGGUCUGCAGAUCGGAAGAGCACACGU
B6: target 3 C6U,A12G (mixed)
RNA 1: CACCCGUGCAAAAUUGCAGGGGUCUAAAACGACCUGAAUAUUUCAGAUCAAA
RNA 2: GGGAAUGGAUCCACAUCUACGAAUUCGUUUUUGAUCUGAGAUAUUUAGGUCUGCAGAUCGGAAGAGCACACGU
B7: target 3 insA 3' of 4,insG 3' of 1 (mixed)
RNA 1: CACCCGUGCAAAAUUGCAGGGGUCUAAAACGACCUGAAUAUUUCAGAUCAAA
RNA 2: GGGAAUGGAUCCACAUCUACGAAUUCGUUUUUGAUCUGAAAUAUUCAGAGUCGUGCAGAUCGGAAGAGCACACGU
B8: target 3 insU 3' of 5,insU 3' of 3 (mixed)
RNA 1: CACCCGUGCAAAAUUGCAGGGGUCUAAAACGACCUGAAUAUUUCAGAUCAAA
RNA 2: GGGAAUGGAUCCACAUCUACGAAUUCGUUUUUGAUCUGAAAUAUUCAUGGUUCUGCAGAUCGGAAGAGCACACGU
B9: target 3 insG 3' of 6 (mixed)
RNA 1: CACCCGUGCAAAAUUGCAGGGGUCUAAAACGACCUGAAUAUUUCAGAUCAAA
RNA 2: GGGAAUGGAUCCACAUCUACGAAUUCGUUUUUGAUCUGAAAUAUUCGAGGUCUGCAGAUCGGAAGAGCACACGU
B10: target 3 insA 3' of 8,insG 3' of 7 (mixed)
RNA 1: CACCCGUGCAAAAUUGCAGGGGUCUAAAACGACCUGAAUAUUUCAGAUCAAA
RNA 2: GGGAAUGGAUCCACAUCUACGAAUUCGUUUUUGAUCUGAAAUAUAUGCAGGUCUGCAGAUCGGAAGAGCACACGU
B11: target 3 insU 3' of 13,insG 3' of 6 (mixed)
RNA 1: CACCCGUGCAAAAUUGCAGGGGUCUAAAACGACCUGAAUAUUUCAGAUCAAA
RNA 2: GGGAAUGGAUCCACAUCUACGAAUUCGUUUUUGAUCUGAUAAUAUUCGAGGUCUGCAGAUCGGAAGAGCACACGU
B12: target 3 insA 3' of 4,insC 3' of 3 (mixed)
RNA 1: CACCCGUGCAAAAUUGCAGGGGUCUAAAACGACCUGAAUAUUUCAGAUCAAA
RNA 2: GGGAAUGGAUCCACAUCUACGAAUUCGUUUUUGAUCUGAAAUAUUCAGAGCUCUGCAGAUCGGAAGAGCACACGU
B13: target 3 insG 3' of 8 (mixed)
RNA 1: CACCCGUGCAAAAUUGCAGGGGUCUAAAACGACCUGAAUAUUUCAGAUCAAA
RNA 2: GGGAAUGGAUCCACAUCUACGAAUUCGUUUUUGAUCUGAAAUAUGUCAGGUCUGCAGAUCGGAAGAGCACACGU
B14: target 3 G3U,U22C (mixed)
RNA 1: CACCCGUGCAAAAUUGCAGGGGUCUAAAACGACCUGAAUAUUUCAGAUCAAA
RNA 2: GGGAAUGGAUCCACAUCUACGAAUUCGUUCUUGAUCUGAAAUAUUCAGUUCUGCAGAUCGGAAGAGCACACGU
B15: target 3 A5U,U7G (mixed)
RNA 1: CACCCGUGCAAAAUUGCAGGGGUCUAAAACGACCUGAAUAUUUCAGAUCAAA
RNA 2: GGGAAUGGAUCCACAUCUACGAAUUCGUUUUUGAUCUGAAAUAUGCUGGUCUGCAGAUCGGAAGAGCACACGU
B16: target 3 G3C,U22C (mixed)
RNA 1: CACCCGUGCAAAAUUGCAGGGGUCUAAAACGACCUGAAUAUUUCAGAUCAAA
RNA 2: GGGAAUGGAUCCACAUCUACGAAUUCGUUCUUGAUCUGAAAUAUUCAGCUCUGCAGAUCGGAAGAGCACACGU
B17: target 3 insC 3' of 7,insG 3' of 6 (mixed)
RNA 1: CACCCGUGCAAAAUUGCAGGGGUCUAAAACGACCUGAAUAUUUCAGAUCAAA
RNA 2: GGGAAUGGAUCCACAUCUACGAAUUCGUUUUUGAUCUGAAAUAUUCCGAGGUCUGCAGAUCGGAAGAGCACACGU
B18: target 3 insA 3' of 4,insA 3' of 1 (mixed)
RNA 1: CACCCGUGCAAAAUUGCAGGGGUCUAAAACGACCUGAAUAUUUCAGAUCAAA
RNA 2: GGGAAUGGAUCCACAUCUACGAAUUCGUUUUUGAUCUGAAAUAUUCAGAGUCAUGCAGAUCGGAAGAGCACACGU
B19: target 3 insU 3' of 5,insG 3' of 5 (mixed)
RNA 1: CACCCGUGCAAAAUUGCAGGGGUCUAAAACGACCUGAAUAUUUCAGAUCAAA
RNA 2: GGGAAUGGAUCCACAUCUACGAAUUCGUUUUUGAUCUGAAAUAUUCAUGGGUCUGCAGAUCGGAAGAGCACACGU
B20: target 3 C1A,U2G (mixed)
RNA 1: CACCCGUGCAAAAUUGCAGGGGUCUAAAACGACCUGAAUAUUUCAGAUCAAA
RNA 2: GGGAAUGGAUCCACAUCUACGAAUUCGUUUUUGAUCUGAAAUAUUCAGGGAUGCAGAUCGGAAGAGCACACGU
B21: target 3 U2G,G14U (mixed)
RNA 1: CACCCGUGCAAAAUUGCAGGGGUCUAAAACGACCUGAAUAUUUCAGAUCAAA
RNA 2: GGGAAUGGAUCCACAUCUACGAAUUCGUUUUUGAUCUUAAAUAUUCAGGGCUGCAGAUCGGAAGAGCACACGU
B22: target 3 U2A,G3U (mixed)
RNA 1: CACCCGUGCAAAAUUGCAGGGGUCUAAAACGACCUGAAUAUUUCAGAUCAAA
RNA 2: GGGAAUGGAUCCACAUCUACGAAUUCGUUUUUGAUCUGAAAUAUUCAGUACUGCAGAUCGGAAGAGCACACGU
B23: target 3 insU 3' of 6,insG 3' of 2 (mixed)
RNA 1: CACCCGUGCAAAAUUGCAGGGGUCUAAAACGACCUGAAUAUUUCAGAUCAAA
RNA 2: GGGAAUGGAUCCACAUCUACGAAUUCGUUUUUGAUCUGAAAUAUUCUAGGUGCUGCAGAUCGGAAGAGCACACGU
B24: target 3 insG 3' of 7,insC 3' of 5 (mixed)
RNA 1: CACCCGUGCAAAAUUGCAGGGGUCUAAAACGACCUGAAUAUUUCAGAUCAAA
RNA 2: GGGAAUGGAUCCACAUCUACGAAUUCGUUUUUGAUCUGAAAUAUUGCACGGUCUGCAGAUCGGAAGAGCACACGU
B25: target 3 U2G,U22A (mixed)
RNA 1: CACCCGUGCAAAAUUGCAGGGGUCUAAAACGACCUGAAUAUUUCAGAUCAAA
RNA 2: GGGAAUGGAUCCACAUCUACGAAUUCGUUAUUGAUCUGAAAUAUUCAGGGCUGCAGAUCGGAAGAGCACACGU
B26: target 3 G4A,U21A (mixed)
RNA 1: CACCCGUGCAAAAUUGCAGGGGUCUAAAACGACCUGAAUAUUUCAGAUCAAA
RNA 2: GGGAAUGGAUCCACAUCUACGAAUUCGUUUAUGAUCUGAAAUAUUCAAGUCUGCAGAUCGGAAGAGCACACGU
B27: target 3 insA 3' of 22,insA 3' of 4 (mixed)
RNA 1: CACCCGUGCAAAAUUGCAGGGGUCUAAAACGACCUGAAUAUUUCAGAUCAAA
RNA 2: GGGAAUGGAUCCACAUCUACGAAUUCGUUUAUUGAUCUGAAAUAUUCAGAGUCUGCAGAUCGGAAGAGCACACGU

These results are taken from publication PMC10786891, “Massively parallel profiling of RNA-targeting CRISPR-Cas13d”.

What is called Kd is a measure of binding affinity in units of concentration. High values mean a looser complex, low ones a tighter complex.

This series concerns the target T1, EsCas13d, nuclease-dead. As to the kind of experiment: crRNA (strand 1, pre-loaded); Mg2+; 40 mM Tris-HCl pH 7.5, 150 mM NaCl, 6 mM MgCl2, 1 mM DTT, 0.1% Tween-20, 0.2 mg/ml BSA; 25 C; 10 min per concentration, then washed. The following applies: tags: His6-TwinStrep-SUMO cleaved; N-terminal SNAP kept (SNAP-Surface 488); label: 3' end held by stalled T7 RNA polymerase.
Take B1: the Kd worked out at 26.5 ± 1.1 nM. B2 came in with a Kd of 8.1 ± 0.8 nM. Next, B3: 17 ± 1.7 nM; B4: 70 ± 32 nM. Next, B5: 94 ± 36 nM; B6: 33 ± 5 nM; B7: 42 ± 13.5 nM. In the case of B8, the equilibrium dissociation constant (Kd) was found to be 4.35 ± 0.375 nM.

For the molecule B9, binding was characterised by a dissociation constant (Kd) of 8.45 ± 0.75 nM.

In turn, B10 registered an equilibrium dissociation constant (Kd) of 72.5 ± 12 nM. Next, B11: 88 ± 24.5 nM.

Molecule B12 returned a Kd of 79.5 ± 24.5 nM. The result for B13 reads 52.5 ± 11.5 nM; that for B14, 28.4 ± 5.25 nM; that for B15, 60.5 ± 7.5 nM. The result for B16 reads 28 ± 4 nM; that for B17, 63 ± 6 nM; that for B18, 50.5 ± 23 nM. The result for B19 reads 4.74 ± 0.56 nM. B20: the Kd came to 73.5 ± 22 nM. The result for B21 reads 73.5 ± 13.5 nM; that for B22, 68 ± 14.5 nM.

As to B23, the affinity, expressed as Kd, was 28 ± 5 nM. Compared with the last molecule, the Kd is about 2.4-fold lower. Next, B24: 24.4 ± 2.85 nM. As for B25, the dissociation constant Kd came to 25.6 ± 2.5 nM. Next, B26: 35.1 ± 3.15 nM; B27: 49 ± 10 nM.
